Here are results for two molecules from article PMC11768756.

The target in this test is MK-1654 IgG (human). Kind of test: SPR; Biacore 8K+; MK-1654 IgG captured on a Protein A chip (about 110 RU); 1A6 or 1D4 Fab flowed at 0.4-128 nM, 60 s contact and 60 s dissociation, 30 µL/min; global 1:1 fit; KD = koff/kon; averages of three runs.
Sequence of MK-1654 IgG (human) (heavy, as listed by the source, chain 1 of 2): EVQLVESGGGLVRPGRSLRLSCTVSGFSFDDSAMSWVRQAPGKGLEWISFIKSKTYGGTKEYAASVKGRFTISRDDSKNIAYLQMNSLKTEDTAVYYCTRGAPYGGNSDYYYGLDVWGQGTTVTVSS
Sequence of MK-1654 IgG (human) (light, as listed by the source, chain 2 of 2): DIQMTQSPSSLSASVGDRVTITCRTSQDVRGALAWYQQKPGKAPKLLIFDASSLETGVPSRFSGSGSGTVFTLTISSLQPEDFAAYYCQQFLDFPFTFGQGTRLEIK

B1: 1A6 anti-idiotypic Fab (Fab, V domains shown)
VH: QVQLVESGGGLVQPGGSLRLSCAASGFTFSSYAMNWVRQAPGKGLEWVSLISGSGSSTYYADSVKGRFTISRDNSKNTLYLQMNSLRAEDTAVYYCARFHTHGGYFDIWGQGTLVTVSS
VL: DIALTQPASVSGSPGQSITISCTGTSSDIGAYTYGSWYQQHPGKAPKLMIYGVNNRPSGVSNRFSGSKSGNTASLTISGLQAEDEADYYCASFDFSVSGVVFGGGTKLTVL
In turn, B1 yielded a Kd of 0.94 nM, a koff of 0.00628 s⁻¹ and a kon of 6.67e+06 M⁻¹ s⁻¹.

B2: 1D4 anti-idiotypic Fab (Fab, V domains shown)
VH: QVQLVESGGGLVQPGGSLRLSCAASGFTFSSSGLHWVRQAPGKGLEWVSGIDSSSSTTYYADSVKGRFTISRDNSKNTLYLQMNSLRAEDTAVYYCARYYFDVWGQGTLVTVSS
VL: DIELTQPPSVSVAPGQTARISCSGDSIGTYAYWYQQKPGQAPVLVIYADDNRPSGIPERFSGSNSGNTATLTISGTQAEDEADYYCSSWATDNAPVFGGGTKLTVL
Regarding B2, the dissociation constant (Kd) was found to be 3.75 nM, the off-rate (koff) was 0.013 s⁻¹ and the kon came out at 3.5e+06 M⁻¹ s⁻¹.
